In paper PMC10786891, “Massively parallel profiling of RNA-targeting CRISPR-Cas13d”:

T1: EsCas13d, nuclease-dead (Eubacterium siraeum, UniProt B0MS50, R295A;H300A;R849A;H854A)
T1 sequence: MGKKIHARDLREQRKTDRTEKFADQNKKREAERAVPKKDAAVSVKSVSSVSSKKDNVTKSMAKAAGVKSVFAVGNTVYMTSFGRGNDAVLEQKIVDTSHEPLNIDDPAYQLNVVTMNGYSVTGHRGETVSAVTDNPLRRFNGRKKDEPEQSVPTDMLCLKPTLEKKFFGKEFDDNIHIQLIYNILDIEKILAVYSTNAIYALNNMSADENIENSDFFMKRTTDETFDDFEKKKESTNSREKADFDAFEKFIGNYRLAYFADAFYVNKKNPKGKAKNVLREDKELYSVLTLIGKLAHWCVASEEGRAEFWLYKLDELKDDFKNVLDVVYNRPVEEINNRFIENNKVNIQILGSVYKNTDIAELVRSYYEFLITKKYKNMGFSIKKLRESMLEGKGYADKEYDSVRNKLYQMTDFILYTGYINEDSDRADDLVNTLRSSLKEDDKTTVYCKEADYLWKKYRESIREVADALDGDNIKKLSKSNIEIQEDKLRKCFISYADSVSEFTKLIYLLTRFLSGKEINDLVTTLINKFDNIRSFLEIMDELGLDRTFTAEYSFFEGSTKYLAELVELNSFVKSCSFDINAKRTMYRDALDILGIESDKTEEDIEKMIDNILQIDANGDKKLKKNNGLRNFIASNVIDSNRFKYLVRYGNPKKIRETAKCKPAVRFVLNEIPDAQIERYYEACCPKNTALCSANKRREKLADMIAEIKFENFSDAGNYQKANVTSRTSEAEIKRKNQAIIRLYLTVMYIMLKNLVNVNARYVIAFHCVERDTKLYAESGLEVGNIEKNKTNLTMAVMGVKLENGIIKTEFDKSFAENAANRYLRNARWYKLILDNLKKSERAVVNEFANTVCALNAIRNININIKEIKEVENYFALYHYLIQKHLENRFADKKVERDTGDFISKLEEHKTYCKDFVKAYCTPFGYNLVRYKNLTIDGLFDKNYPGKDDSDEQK

B1: target 1 insU 3' of 21,insA 3' of 6 (mixed)
RNA 1: CACCCGUGCAAAAAUGCAGGGGUCUAAAACUGAGCGGAUAACCUCUCUAUGG
RNA 2: GGGAAUGGAUCCACAUCUACGAAUUCGUACCUAUAGAGAGGUUAUCCAGCUCACCGAGAUCGGAAGAGCACACGU
B2: target 1 U8G,G12U (mixed)
RNA 1: CACCCGUGCAAAAAUGCAGGGGUCUAAAACUGAGCGGAUAACCUCUCUAUGG
RNA 2: GGGAAUGGAUCCACAUCUACGAAUUCGUACCAUAGAGAGUUUAGCCGCUCACCGAGAUCGGAAGAGCACACGU
B3: target 1 insA 3' of 8,insA 3' of 2 (mixed)
RNA 1: CACCCGUGCAAAAAUGCAGGGGUCUAAAACUGAGCGGAUAACCUCUCUAUGG
RNA 2: GGGAAUGGAUCCACAUCUACGAAUUCGUACCAUAGAGAGGUUAUACCGCUCAACCGAGAUCGGAAGAGCACACGU
B4: target 1 insU 3' of 22,insA 3' of 5 (mixed)
RNA 1: CACCCGUGCAAAAAUGCAGGGGUCUAAAACUGAGCGGAUAACCUCUCUAUGG
RNA 2: GGGAAUGGAUCCACAUCUACGAAUUCGUACUCAUAGAGAGGUUAUCCGACUCACCGAGAUCGGAAGAGCACACGU
B5: target 1 insA 3' of 17,insA 3' of 3 (mixed)
RNA 1: CACCCGUGCAAAAAUGCAGGGGUCUAAAACUGAGCGGAUAACCUCUCUAUGG
RNA 2: GGGAAUGGAUCCACAUCUACGAAUUCGUACCAUAGAAGAGGUUAUCCGCUACACCGAGAUCGGAAGAGCACACGU
B6: target 1 insA 3' of 21,insA 3' of 21 (mixed)
RNA 1: CACCCGUGCAAAAAUGCAGGGGUCUAAAACUGAGCGGAUAACCUCUCUAUGG
RNA 2: GGGAAUGGAUCCACAUCUACGAAUUCGUACCAAAUAGAGAGGUUAUCCGCUCACCGAGAUCGGAAGAGCACACGU
B7: target 1 MT 5'PFS UAG 3'PFS UUU (mixed)
RNA 1: CACCCGUGCAAAAAUGCAGGGGUCUAAAACUGAGCGGAUAACCUCUCUAUGG
RNA 2: GGGAAUGGAUCCACAUCUACGAAUUCUAGCCAUAGAGAGGUUAUCCGCUCAUUUAGAUCGGAAGAGCACACGU
B8: target 1 MT 5'PFS UAG 3'PFS UUA (mixed)
RNA 1: CACCCGUGCAAAAAUGCAGGGGUCUAAAACUGAGCGGAUAACCUCUCUAUGG
RNA 2: GGGAAUGGAUCCACAUCUACGAAUUCUAGCCAUAGAGAGGUUAUCCGCUCAUUAAGAUCGGAAGAGCACACGU
B9: target 1 MT 5'PFS GUG 3'PFS GCA (mixed)
RNA 1: CACCCGUGCAAAAAUGCAGGGGUCUAAAACUGAGCGGAUAACCUCUCUAUGG
RNA 2: GGGAAUGGAUCCACAUCUACGAAUUCGUGCCAUAGAGAGGUUAUCCGCUCAGCAAGAUCGGAAGAGCACACGU
B10: target 1 insC 3' of 22,insG 3' of 4 (mixed)
RNA 1: CACCCGUGCAAAAAUGCAGGGGUCUAAAACUGAGCGGAUAACCUCUCUAUGG
RNA 2: GGGAAUGGAUCCACAUCUACGAAUUCGUACCCAUAGAGAGGUUAUCCGCGUCACCGAGAUCGGAAGAGCACACGU
B11: target 1 insA 3' of 8,insU 3' of 1 (mixed)
RNA 1: CACCCGUGCAAAAAUGCAGGGGUCUAAAACUGAGCGGAUAACCUCUCUAUGG
RNA 2: GGGAAUGGAUCCACAUCUACGAAUUCGUACCAUAGAGAGGUUAUACCGCUCAUCCGAGAUCGGAAGAGCACACGU
B12: target 1 MT 5'PFS UCC 3'PFS CUG (mixed)
RNA 1: CACCCGUGCAAAAAUGCAGGGGUCUAAAACUGAGCGGAUAACCUCUCUAUGG
RNA 2: GGGAAUGGAUCCACAUCUACGAAUUCUCCCCAUAGAGAGGUUAUCCGCUCACUGAGAUCGGAAGAGCACACGU
B13: target 1 MT 5'PFS UAG 3'PFS UUC (mixed)
RNA 1: CACCCGUGCAAAAAUGCAGGGGUCUAAAACUGAGCGGAUAACCUCUCUAUGG
RNA 2: GGGAAUGGAUCCACAUCUACGAAUUCUAGCCAUAGAGAGGUUAUCCGCUCAUUCAGAUCGGAAGAGCACACGU
B14: target 1 MT 5'PFS UGC 3'PFS AAA (mixed)
RNA 1: CACCCGUGCAAAAAUGCAGGGGUCUAAAACUGAGCGGAUAACCUCUCUAUGG
RNA 2: GGGAAUGGAUCCACAUCUACGAAUUCUGCCCAUAGAGAGGUUAUCCGCUCAAAAAGAUCGGAAGAGCACACGU
B15: target 1 insC 3' of 17,insA 3' of 5 (mixed)
RNA 1: CACCCGUGCAAAAAUGCAGGGGUCUAAAACUGAGCGGAUAACCUCUCUAUGG
RNA 2: GGGAAUGGAUCCACAUCUACGAAUUCGUACCAUAGCAGAGGUUAUCCGACUCACCGAGAUCGGAAGAGCACACGU
B16: target 1 MT 5'PFS AAU 3'PFS CAU (mixed)
RNA 1: CACCCGUGCAAAAAUGCAGGGGUCUAAAACUGAGCGGAUAACCUCUCUAUGG
RNA 2: GGGAAUGGAUCCACAUCUACGAAUUCAAUCCAUAGAGAGGUUAUCCGCUCACAUAGAUCGGAAGAGCACACGU
B17: target 1 MT 5'PFS UAU 3'PFS UGC (mixed)
RNA 1: CACCCGUGCAAAAAUGCAGGGGUCUAAAACUGAGCGGAUAACCUCUCUAUGG
RNA 2: GGGAAUGGAUCCACAUCUACGAAUUCUAUCCAUAGAGAGGUUAUCCGCUCAUGCAGAUCGGAAGAGCACACGU
B18: target 1 MT 5'PFS GCG 3'PFS UGU (mixed)
RNA 1: CACCCGUGCAAAAAUGCAGGGGUCUAAAACUGAGCGGAUAACCUCUCUAUGG
RNA 2: GGGAAUGGAUCCACAUCUACGAAUUCGCGCCAUAGAGAGGUUAUCCGCUCAUGUAGAUCGGAAGAGCACACGU
B19: target 1 MT 5'PFS UAG 3'PFS UUG (mixed)
RNA 1: CACCCGUGCAAAAAUGCAGGGGUCUAAAACUGAGCGGAUAACCUCUCUAUGG
RNA 2: GGGAAUGGAUCCACAUCUACGAAUUCUAGCCAUAGAGAGGUUAUCCGCUCAUUGAGAUCGGAAGAGCACACGU
B20: target 1 MT 5'PFS GUG 3'PFS GCU (mixed)
RNA 1: CACCCGUGCAAAAAUGCAGGGGUCUAAAACUGAGCGGAUAACCUCUCUAUGG
RNA 2: GGGAAUGGAUCCACAUCUACGAAUUCGUGCCAUAGAGAGGUUAUCCGCUCAGCUAGAUCGGAAGAGCACACGU
B21: target 1 insC 3' of 16,insC 3' of 8 (mixed)
RNA 1: CACCCGUGCAAAAAUGCAGGGGUCUAAAACUGAGCGGAUAACCUCUCUAUGG
RNA 2: GGGAAUGGAUCCACAUCUACGAAUUCGUACCAUAGACGAGGUUAUCCCGCUCACCGAGAUCGGAAGAGCACACGU
B22: target 1 insA 3' of 7,insC 3' of 3 (mixed)
RNA 1: CACCCGUGCAAAAAUGCAGGGGUCUAAAACUGAGCGGAUAACCUCUCUAUGG
RNA 2: GGGAAUGGAUCCACAUCUACGAAUUCGUACCAUAGAGAGGUUAUCACGCUCCACCGAGAUCGGAAGAGCACACGU
B23: target 1 MT 5'PFS GGC 3'PFS UUG (mixed)
RNA 1: CACCCGUGCAAAAAUGCAGGGGUCUAAAACUGAGCGGAUAACCUCUCUAUGG
RNA 2: GGGAAUGGAUCCACAUCUACGAAUUCGGCCCAUAGAGAGGUUAUCCGCUCAUUGAGAUCGGAAGAGCACACGU
B24: target 1 A16C,A20U (mixed)
RNA 1: CACCCGUGCAAAAAUGCAGGGGUCUAAAACUGAGCGGAUAACCUCUCUAUGG
RNA 2: GGGAAUGGAUCCACAUCUACGAAUUCGUACCUUAGCGAGGUUAUCCGCUCACCGAGAUCGGAAGAGCACACGU
B25: target 1 MT 5'PFS UGC 3'PFS AAC (mixed)
RNA 1: CACCCGUGCAAAAAUGCAGGGGUCUAAAACUGAGCGGAUAACCUCUCUAUGG
RNA 2: GGGAAUGGAUCCACAUCUACGAAUUCUGCCCAUAGAGAGGUUAUCCGCUCAAACAGAUCGGAAGAGCACACGU
B26: target 1 MT 5'PFS GAA 3'PFS CAU (mixed)
RNA 1: CACCCGUGCAAAAAUGCAGGGGUCUAAAACUGAGCGGAUAACCUCUCUAUGG
RNA 2: GGGAAUGGAUCCACAUCUACGAAUUCGAACCAUAGAGAGGUUAUCCGCUCACAUAGAUCGGAAGAGCACACGU
B27: target 1 MT 5'PFS CUG 3'PFS CAC (mixed)
RNA 1: CACCCGUGCAAAAAUGCAGGGGUCUAAAACUGAGCGGAUAACCUCUCUAUGG
RNA 2: GGGAAUGGAUCCACAUCUACGAAUUCCUGCCAUAGAGAGGUUAUCCGCUCACACAGAUCGGAAGAGCACACGU
B28: target 1 MT 5'PFS AAG 3'PFS UCU (mixed)
RNA 1: CACCCGUGCAAAAAUGCAGGGGUCUAAAACUGAGCGGAUAACCUCUCUAUGG
RNA 2: GGGAAUGGAUCCACAUCUACGAAUUCAAGCCAUAGAGAGGUUAUCCGCUCAUCUAGAUCGGAAGAGCACACGU

biological target: T1, EsCas13d, nuclease-dead; assay: crRNA (strand 1, pre-loaded); Mg2+; 40 mM Tris-HCl pH 7.5, 150 mM NaCl, 6 mM MgCl2, 1 mM DTT, 0.1% Tween-20, 0.2 mg/ml BSA; 25 C; 10 min per concentration, then washed; details: tags: His6-TwinStrep-SUMO cleaved; N-terminal SNAP kept (SNAP-Surface 488); label: 3' end held by stalled T7 RNA polymerase

Q: How did the Kd turn out when B1 was run?
A: Its Kd is 28.2 ± 2.3 nM.

Q: Which Kd does the source give for B2 here?
A: The Kd was 11.8 ± 1.3 nM.

Q: Which Kd does the source give for B3 here?
A: Its Kd is 17.9 ± 0.6 nM.

Q: With B4 as the binder, how does the Kd read?
A: The Kd was 18.8 ± 1.6 nM.

Q: With B5 as the binder, how does the Kd read?
A: The Kd was 11.7 ± 0.4 nM.

Q: How did the Kd turn out when B6 was run?
A: The Kd was 15.4 ± 0.8 nM.

Q: How did the Kd turn out when B7 was run?
A: Its Kd is 23.4 ± 3.05 nM.

Q: For B8, which Kd is on record?
A: Its Kd is 18.4 ± 3.7 nM.

Q: B9 was tested. Which Kd did it give?
A: Its Kd is 26 ± 4 nM.

Q: B10 was tested. Which Kd did it give?
A: Its Kd is 12.8 ± 1.1 nM.

Q: For B11, which Kd is on record?
A: The Kd was 12.9 ± 0.6 nM.

Q: With B12 as the binder, how does the Kd read?
A: The Kd was 14.5 ± 4.5 nM.

Q: With B13 as the binder, how does the Kd read?
A: The Kd was 18.9 ± 3.85 nM.

Q: Which Kd does the source give for B14 here?
A: The Kd was ~50 nM.

Q: How did the Kd turn out when B15 was run?
A: The Kd was 23 ± 4 nM.

Q: B16 was tested. Which Kd did it give?
A: Its Kd is 100 ± 45 nM.

Q: How did the Kd turn out when B17 was run?
A: Its Kd is ~59.5 nM.

Q: B18 was tested. Which Kd did it give?
A: Its Kd is 41.5 ± 8.5 nM.

Q: With B19 as the binder, how does the Kd read?
A: Its Kd is 12.9 ± 1.1 nM.

Q: With B20 as the binder, how does the Kd read?
A: The Kd was 7 ± 0.7 nM.

Q: Which Kd does the source give for B21 here?
A: The Kd was ~90 nM.

Q: Which Kd does the source give for B22 here?
A: The Kd was 6.32 ± 0.25 nM.

Q: How did the Kd turn out when B23 was run?
A: Its Kd is 9 ± 1.2 nM.

Q: B24 was tested. Which Kd did it give?
A: Its Kd is 85 ± 29 nM.

Q: Which Kd does the source give for B25 here?
A: The Kd was ~40 nM.

Q: How did the Kd turn out when B26 was run?
A: The Kd was ~95 nM.

Q: B27 was tested. Which Kd did it give?
A: Its Kd is 5.25 ± 1.6 nM.

Q: How did the Kd turn out when B28 was run?
A: Its Kd is 12.1 ± 3.65 nM.
